Data as given in a protein production outcome set (Wang et al. 2014).

experiment: label from the status in PepcDB records

| Sequence | protein production |
| --- | --- |
| MTSQITANGTQRLPEPVSEHEAVPPPPPTAAGRPRPPTSQLFSRGNLASSRATGGDKSGLARPSTAVRAVGYAANCESAHQRFEQFFLEKAKQQTLSSRAAVDAIKDVNPQMKYKNLEEKIVKLLESSIVLAWQGSPNKLLNLDTKLAEALSKAKEAFSLDRTLHQFRDQHGENVYHNFDLTYAQYERSEMHIEALNTYSIMAKNKMFPHVNQLKLNMGNIYYSMGIYQKAVKMYRMALDSVPKSLSQLRLKIRENIGILFIRMGSYSDAASSFEFIMTERANIRSSIHLLLCYFALGDVEKVKLAFRRLCDVQTEAIESDMESETNIIKLQQQAEPIQQIGETDGYQSLNNEPVTGSVIKAEGGGKLNETVKFAATVKHRYVVQALKKDELAVYRNERRNAVKRSITMIVDLISPFIEDNYNDGYNWCIEIIKTSNLAWLANELELNKALVYLRQNDVHQAIETLQMYDRKSEGSMTASALTNLSFIYIKMASHCVNQLHEIGSLKNNAPGLINAGIVELGSHNLILASERFEGALQLQPMNFEARYNLGLVALAQNDYELAEERFELLKEQLMLPSSVQHSHVFYQLAKLQERRLESGLISNFTPGAALQAYLQVVGISASDIDSRLFEKVGSLYEQIQDHQEANQYYNEAYRINMSDIGIASSIGSYYIKLQATERALFYYERAVLADPNDPNLMLRIASCFRNSYLPTKQYLGLFQKIHARFPDNLTCIRALMQVTKSLELGDLYERYASEYTRLQSQQQERQSEQRYQQQRFPSAAKFTIRQSNEEHLKEVGENFNSVVHTQSPYTSILQFDPLGPPAERPKTGRPLQSRDDVDDDAEMNPESLLPI | failed |
| MTSRSATATARTSSEARAVARTQTLIKGEHGIGTVRRTTLPGGLRIVTETLPSVRSATFGIWAHVGSRDETPALNGATHYLEHLLFKGTRKRSALDISSAIDAVGGEMNAFTAKEYTCYYARVLDTDLPLAIDVVCDMLTGSLIQEEDVDVERGAILEEIAMTEDDPGDCVHDLFAHTMFGDNALGRPVLGTVDTVNALTADRIRRFYRKHYDPTHLVVAAAGNVDHNKVVRQVRAAFEKSGALKDPAAQPLAPRAGRRTVRAAGRVELIGRKTEQAHVILGMPGLARTDERRWAMGVLNTALGGGMSSRLFQEVREKRGLAYSVYSYTSGFADCGLFGVYAGCRPSQVHDVLKICRDELDHVAEHGLTDDEIGRAVGQLQGSTVLGLEDTGALMNRIGKSELCWGEQMSVDDMLARIASVTPDDVRAVARDVLGRRPSLSVIGPLKDKQASRLHDAVA | failed |
| MTSSPTSTQESSTSWYLLLQQLIDGESLSRSQAAELMQGWLSEAVPPELSGAILTALNFKGVSADELTGMAEVLQSQSKMGTGENYSQLPITNSPFSIIDTCGTGGDGSSTFNISTAVAFVAAAYGVPVAKHGNRSASSLTGSADVLEALGVNLGASPEKVQAALQEVGITFLFAPGWHPALKAVATLRRTLRIRTVFNLLGPLVNPLRPTGQVVGLFTPKLLTTVAQALDNLGKQKAIVLHGRERLDEAGLGDLTDLAVLSDGELQLTTINPQEVGVTPAPIGALRGGDVQENAEILKAVLQGKGTQAQQDAVALNAALALQVAGAVPLLDHAQGVSVAKEILQTGTAWAKLAQLVYFLGN | not failed |
| MTSSRVNSLIVGGFVLILLGGIIAAATILAGKTGSTDTYFTSYDNVTGIKYGTQVLYEGYRIGQVDEIIPEQRAEGTSFRLRLAVQKGWRIPEGSQTTIATSGLLSAVAINIRGGTAEASLTPGSEIPGGASGGMFAAINDLASEVGTLSRDGLEPLVAKLNAYVDTLGGSLADNLPAILGNARITSEAIARDLPPIIARVDRFTARLDAEVLSQKNIDGLGASIGNISAFSAELNGLGRELRQTGQTLDGMVAGSAPLVDSSLRDLRYTLRALASSIDAITFNMEGASRDMKEFSRSLRQNPGVLLRGSAPAEDGR | failed |
| MTSTCTICERIKLIQAHQNPYFVYELTTGYVVLADSQYFEGYTLFLAKHHVTELHHLPAHEKLRYLEEMSIVQEACAQAFHADKMNIELLGNGDAHVHWHLFPRHNGDTPNPGPVWWTPLETIYGDDVSLDIPRLSRLKRTLSVAIEATLNAREAELQALEALTRPASHRIDSN | failed |
| MTSTETPLNSPAAAADRRRWFALAIVMTAAFMDLVDVTIVNIAIPSIQRDAGASWGQIQWITAGYALAFAAGLITGGRLGDIHGRKRLFLIGIGGFTLASALCGFAANPEMLVASRILQGGMAAMMVPQVLSIVHATFPAHERGKVFGLFGAIVGLGAVSGPLLGALLTEWNLFGLEWRPIFLINLPVGVAGLILGRRFITESKAPRALKLDLVGVALVTLGLLMLLYPLTRGRELGWPLWGHVSMAGALVVFAALVAYERRKTARDGSPLVELSLFKVKSFAAGIAVQTVFGIALGIFFLVWTLYMQMGLGWSALRAGLTGVPFSIAVSAAAGMSVQLLVPRFGRKVLQAGALLMALGVLLYIWESDRYGMAIASWQMALPLVVMGAGMGFIVAPLTDAVLSEVPREHSGSASGLINTVQQMGNALGLGLVSVVFFGEIGDRLTRAQVGPAFAHAFQHALGWVAVVLAVIFLLMFALPKRPAQHVEGAGAADTLGEKEPVLVP | failed |
| MTSTPGISDSLLSSMNGSGANNNTSAISETQDRFMKLLIAQMKNQDPLNPMDNAEVTSQMAQLSTVTGIEKMNASLSTFISSMQATQALQASSLIGNTVLVEGNSTYLAPAETEGESAAYLGVELPIGADKLTVNIKNGAGNVVKTITVTNQPAGISSLGWNGYGDDGTKLPDGRYTIEATATTGNSSVASTPLSYEQVMSVSTGSDGVKLNLSNLAAITTDQIKQIF | not failed |
| MTSVMPFAHLLLALLVVFVWGINFIFVKLSLEEFSPLLLCAVRFLLASVPAVFFIKPPAVPFKIIASYGLIMFALQFALLFIGLRVGMTPGVASLLMQVQVFFSMFFAIIFLGEQPQVGQIIGALIAFIGIGVVALHFDHNVSLMGFLCILAAAASWGIGNLITKKIHSVNLIAVIVWSSFVACLPMFILSLVFEGPESFVTAYEHMTWKGILSVLYIVYISTWVGYGVWNWLISRYPVGMVVPFTLLVPVVGILSSVLILGEPFYLWKLVAGLLVISGLCINLLTTRLFVAKTQQPETA | failed |
| MTSVTDRSAHSAERSTEHTIDIHTTAGKLAELHKRREESLHPVGEDAVEKVHAKGKLTARERIYALLDEDSFVELDALAKHRSTNFNLGEKRPLGDGVVTGYGTIDGRDVCIFSQDATVFGGSLGEVYGEKIVKVQELAIKTGRPLIGINDGAGARIQEGVVSLGLYSRIFRNNILASGVIPQISLIMGAAAGGHVYSPALTDFVIMVDQTSQMFITGPDVIKTVTGEEVTMEELGGAHTHMAKSGTAHYAASGEQDAFDYVRELLSYLPPNNSTDAPRYQAAAPTGPIEENLTDEDLELDTLIPDSPNQPYDMHEVITRLLDDEFLEIQAGYAQNIVVGFGRIDGRPVGIVANQPTHFAGCLDINASEKAARFVRTCDCFNIPIVMLVDVPGFLPGTDQEYNGIIRRGAKLLYAYGEATVPKITVITRKAYGGAYCVMGSKDMGCDVNLAWPTAQIAVMGASGAVGFVYRQQLAEAAANGEDIDKLRLRLQQEYEDTLVNPYVAAERGYVDAVIPPSHTRGYIGTALRLLERKIAQLPPKKHGNVPL | not failed |
| MTTANTPVRPKSAIDAVADAYTEKLIELNPSFATTLGLPGHETEYQDYSPAGAAAHAEATRLALEALAGLEPSDDVDAVTLDAMRERLGLELEIHQSGWDAADLNNIASPAQDIRAIFDLMPTDTVEHWEHIAGRAANVPGAIEGYIASLRAAKDDRKVAAARQIRIVIEQTGRYAAEDGFFAKMAADASLGDAPLPAEVQDKLDAGTSAARSAYSALGAFLRDELLPVAPEKDAVGRERYSLASRSFIGAEVDLEETYAWGVQELERLISEQEKVAGQIKPGASIEEAKSILNNDPARQIKGTDALKAWMQELSDRAVSELADVHFDIPDVMKTLECMIAPTDEGGIYYTGPSDDFSRPGRMWWSVPAGEDTFTTWSETTTVFHEGVPGHHLQVATATYRRELLNNWRRNVCWVSGHGEGWALYAEQLMLELGYLKDPGDHMGMLDGQRMRAARVVFDIGVHLELPVPERWGTGTWTPEKGFDFLKANLDISEGQLQFEFTRYLGWPGQAPSYKVGQRLWEQIRAELESREGFDLKSFHSKALNIGSVGLDVLRRALL | not failed |
| MTTCAPAVPAQLDVAGDLLALLRDTTTEPRPDIQLEALTLAVAADLPVLLWGEPGIGKTAALTQLATALDLPLTTVIASVHEPSDFSGLPVVGDDPAEQGVPMAPPDWAVRLVRAGRGLLFLDELSTAPPAVQAALLRLVLERRIGALRLPPGVRIVAAANPRSSAADGWELSPPLANRFVHLQWTHDQDVVVRGLGGTWPRAALPSLDPGGLDGAVRYARRAVCAFLTARPGLVHRLPSGETRRGGAWPSPRSWEMTLCLIAFATAAGSSREVLSLLVRGTVGDGPGLELMASLDRMDLPDPETLLADPAGAVLPERGDLRQAVLDGVVAAVRKRPEKSRWDSAWALLARAMETGAPDVVVVPATTLATLRQQDWDIPASIERLAGAMSLSRRADRAADRAAARLAGTARTSGLEHHHHHH | failed |
| MTTDNPLISIYMPTWNRQQLAIRAIKSVLRQDYRHWEMIIVDDCSSSYQQLQQFVEELNDPRVRYTHNARNTGACAVRNQAIMQAQGHYITGIDDDDEWTPNRLSVFLAHKHQLTTHAFLYANDYVCEGEVYSQPASLPLYPKSPYSRRLFYKRNIIGNQVFTWAWRFKASLFDTELKAAQDYDIFLRMVVEYGEPWKVEEATQILHINHGEMQITSSPKKFSGYFHFYRKHKDKFDRASKKYQLFTLYQIRNKRMTWRTLLTLLSVRNSKRLAAGLRGR | failed |
| MTTEIKKLDPDTAIDIAYDIFLEMAGENLDPADILLFNLQFEERGGVEFVETADDWEEEIGVLIDPEEYAEVWVGLVNEQDEMDDVFAKFLISHREEDREFHVIWKK | not failed |
| MTTFDAKKLKKEYLDWYNQILEFSNLSNNSVKIDTPFKDNSLDNLKIYALYDQSRDMITLTDDGYTIFGLENNGVSINKFKKRKKIFEEHLSAYGIKYNDKTHEIFVQTNFKNFNKSKHNLLQCLIFVNDMYLLSNPKSQNIFTEDVANKLDEHNIYYGRDIPIIGSSGVVHNFDFFISAKKNQKEKFINVFSNPNNSMIIKSKITDAMQAKKIKRHRQNEFIFILNDSKKEINEHNKNLLHENYISTIDYSELDEKIGLLI | failed |
| MTTGPALSSSEEGLMSEMPPAWCHTARADHSTPGTSPEMIPDTQGHWMPLRSRGLGALPGAFQAPQPLLSRLRHRLAPPRIVGTVSCRRLRTIVALGAARDSCTVGTQGRPGNSDLPAFPTSQVVRGKMGPGSQRTLVLLLLLLASPGARAFQSCLNKQQLLTTVRQLQQLLKGQETRFTEGIRNMKSRLTALQNTVSKMTPDAPPVSCPALDAPPNGKKFGSKYLVDHEVHFTCNPGFQLVGPSSVVCLANGTWTGEQPRCRDTSECSSQPCHNGGTCVEGVHHYRCICPPGKTGNRCQHQTQAAAPGGVAGDSAYSRAPRCAQVEREQHCSCEAGFHLSGTAGGHSVCQDVNECEIYGQEGRPRLCMHACVNTPGSYRCTCPSGYRILADGKSCEDVDECAGPQHMCPRGTTCINTGGGFQCVNPECPEGSGNISYVKTSPFQCERNPCPMDSRPCRHLPKTISFHYLSLPSNLKTPITLFRMATASVPGHPGPNSLRFGIVGGNSRGHFVMQRSDRQTGELILIQTLEGPQTLEVEVDMSEYLERSFQASHVSKVTIFVSRYDF | failed |
| MTTIFPPIPDRLRPLLRIAFMCGILATLPILCDVYAADEPPAARDEARPEEAAEPAATSAPAPAEQPVTFAITTILVERNTLFASDRLQEVMAPFVGDGKTADDVEKAREALEKFHHDQGYPTVIVNIPEQSVEEGIIRLQVVEQRINTVTVTGNRYFSREMILGKFPSLQPGGIPHVPTLQAEFTKAGRNPDLKITPAMAPSREVGYVDVELKIEEKLPLHGSLELNNRSSHDTSALRLNGAIRYDNLWQREHSVGLQYQTAPEKTREVQILSGSYVLPDPWHDDRRIVFYGVWSDTNTFASLGDMQVLGKGIIVGGRYLIPLAGKGLYNHSATLGIDYKRFDESAGFKTRVSYLPLSTAYDASLQDSTGYTLFNAGLNFAFRGAVTDQSEMAVKRSEAKGNYLAAILGLERQQKLPLGMGLRARIDGQLSSEPLIPNEQFVAGGMDSVRGYKESEALGDNGFHGTVELRVPDITLGSAMSMTPYVFYDMAAVELKKPLPGENRSQTLQGTGAGVRGMLFKFLEYQVDFAVALSDSDRIKEGDQRVHFRVSCAF | failed |
